Experimental data from the supplement of paper PMC12636428.

System: Saccharomyces cerevisiae
Experiment: transcriptional activation domain activity (GFP:mCherry ratio, weighted mean of sorted bins, harmonized to initial dataset scale) (arbitrary fluorescence ratio units); higher = stronger transcriptional activation
Settings: beta-estradiol 1 µM; induction time 4 h
Protocol: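 53-aa protein tiles (fungal proteins plus yeast TF control tiles) fused C-terminally to a DBD-estrogen-binding domain-mCherry synthetic TF, integrated in S. cerevisiae (URA3 locus) with a GFP reporter. Cells were induced with 1 uM beta-estradiol for 4 h at 30 C, FACS-sorted into 8 bins by GFP:mCherry ratio and barcodes sequenced. Activity is the read-weighted mean bin fluorescence (GFP:mCherry), averaged over barcodes (median 12); tiles under 50 reads were discarded. New active-learning values were harmonized by linear fit onto the scale of the initial (Hummel et al.) dataset. The assay saturates at low and high signal.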

Sequence | transcriptional activation domain activity
VRSRALLFVFKYYFFLVYFVFYRNLFARLRSFDQFALVQLLSSFWVCIWYPFS | 48400
SLTHGMPQDLRRAVRNGVRLASAEDQERYFTFILHEAVRLYGVLMMRIVYRLF | 55300
IHISPFLSFLLFNTFLFFFDILLEYDQSGKSSCSVLWGIGWGCWWILFIGSLQ | 38800
MFESVNLDENSPEDRELAKVLSPPGSYLSPASLDSGSSFTNSGTSTSCFEPKN | 32400
AILLLSAYVLFLVVWLIFFSRVILLIPFFPGTPYNLAMPVVLLGLFYCFVFTW | 32700
VFRLCLGDLFRPYGISLNVIRLMLMATGTDLDFYVPRSKWRQVLLFLRLASGY | 72200
TLHHKHVVLWNTSRQVATEVIRLPFSCSGKMLCLLLLPEAEDGLKRVHVVALS | 25600
MNRIKSARGRDDGSDGEVRILVVSGPRVREVEWSGVQPAWMAVEVVVVMECPR | 36800
AGEKADAPNGEGAGEGNRRRPSGRGRGRGRGGRGARNGRDGAQEEGAEAAAAP | 14300
VYVDNDGLPARSQWVLMYERMGEQGGMTLAARFVMFVDFLVQMVRLLSRSPLY | 34600
FFCFVFLAHYTWLIKHGFQTHLLELGSFFSDLSLIICFFLLIMHLFCVTPFFR | 68400
LVEFLFAVNDEVANVLLVFFCVFVAGYFILTSLPLLFQQCPFQTPLTSFFWYA | 38600
SSSSTPSAFSSATPSSLFGSGASSTAKPFGSAASPSPFGAAKSSPSLFGSGGG | 69900
EVLHLFIHFSFIFALYMLCFFLPAKHLCNLLTWYKYLFFLLSIMLFFLILIGT | 64200
MNCRIVWNRCCGGLVPRFLLFLWCFGTVGYYRYFFSMGLGILLLWYILVLTTV | 50600
ERDMELLVGHFDFMAKEAFLADSISLCSTEEELERRLDTPVIQEDSPVMDNNT | 62900
KIHLVNIAQVVVFFIYRFLYGLIPLFEISTCAYYPLLVSLWHLDYLLFYTVMF | 64000
LLKKCLKSSFGKSNEVTTYCLEFFGNVYRWSEMYWSSTWPVLLLVHALKSKQK | 52700
HCNGLLGNADLFEDPYQDELTSELHVLVTERLVNSWKDTILQQLCSCQDTTLS | 83700
LLTFKLHRLFVVSQKMEDEGVRKLILHLTCCLLPKPNRDSMEAICLFLRWVAS | 83200
MEGMQVEQDIARGSRKPHRKSRLGCGNCKQRRVKCDERKPSCDRCVKHNILCD | 23800
MSGVGKLYRMGCWHGSHLPFIYFGHFILPFLLCLRPILSSVFFIYFFHLLCFF | 47000
MWGILYSLQYHQNFPFVACFLSDLFEKIIHHHFFYFSLSSFSLFLIFHFWFFF | 52000
PSLKCVSLTYDELVRIVAQLLQKAFFKRFPSLKERFYSLVLSFLKKAMVPTNK | 40500
MATLDEALDNEGGKRRRSHKKSRRGCGDCRRRRVKCSEENPRCQACVRRGVQC | 67400
AEEEQKKPKGKKAAAASKPKKSSDDEPAPGKSKPAARTGSIKGKSTGTKAGAQ | 22300
LVYPIVYLYMDRFFMFVLCSPPSHVLGCWESVTVRTYVGILFPLLICCLFYVL | 41100

Sequence | transcriptional activation domain activity
CFSKCLDGHTLLLCTLYFLIINQKLLYCYVIVFFFWIWLSISLSYICVSELYY | 57100
PVPFDPPMPVDGLGFLPGDGWMDAMDDIGPLEALDLGFLPVDFWEPHFNRQWN | 135000
SKRREIRKTKEARREGSERRDGEADSEEKAREGKGSKRRRRGTGRRAEEAAKG | 27400
FFLALSFKDPFRWLYQFNMDPSLCTEKYLGSNLCVNQNLITLGFMLLLDLVLF | 67300
LLCKKVVAFFQLLSESHVSGMRRLGVTQELLSLVTGLAHYLKLLIRICLQGAL | 72100
MEGSEKAARVAPPAQRVRTGCLTCRKRHLKCDEAKPTCENCRKGRRECVRGLR | 6710
EKEEDAQLRDRHRGRHSVDRDLHRRGGRVRDRSRGERSLRNQPRAAGAGAAAG | 57600
MRLVYFCAGIYFLVADLVFSLFLFSFSSLLTLFFSPFFSLSLGLTLLEIQFTF | 51800
KWIVPTPFASHAFHCLDGYFQSIPYHLYVYLVPMQKWLYISMFLFVNVWTVMI | 48400
MSEPPRKRAKLACVTCNARRVKCDVTDRQPCTNCITGNVHCETRESKRGKHPR | 20300
VKEKTDQAKAEDRKRAEKRGEQYEDSSDEEKERRRKARQKAKQGGGTGAAKAP | 26200
MYLEVRCQLLGCMAIWWDNWFRLDLLSLVSAYRILLLCMGEFLIWKFWFIRLF | 60000
TPVYIGPLDGGAGDAQHGRKGGESRFQITPRKTVRLGEDGKGRKVSVEQRIVC | 49400
AHQRTTGASAEEKLALEVVLIMRNDLITHVIVYVLRSFLVYNAPLTGPLAEKL | 55000
MILFFFAHRGLFLVYSASFCLCCDCLYFFLVYTFFFTLHNPFFLVPLFFSIIL | 62900
LLFVTDWALVGLGRFSESCIFFFLFSLWYNFCLHRFFISPTLYSSLTWHCVTS | 42800
ALSAWIIIQGYRVQWKTILLHDNLFVFTAASKSWVFAHAVYRFVLLTLPCFGS | 40700
EKVKEEEEVKYKGKEQEEVKDKGKEQEQEQEQEQEQEQEQEAPAPPRTTTSTA | 40900
LSLLSLCLGILHSSFKTCFVLLFVLIHICICTLFLIFSFFTPLLTIPTYVTLS | 57500
LHQFDHFGYQQVFSVRWMKKHLHDVSGGVMLHVIKYMANILSSLLAPMGYFEM | 29600
YSASPLEGDSSLPSSLPSSTEDCLLLSLENTITVIAGNQRQAYDSTSSTEEGT | 16100
TVMVFGSDEKRVKAVGDMLKANLNVKGGGKGTRWSGKRTGVWSDSREGAAVTG | 47800
ASVVQWLGFHPSKVEVRVRFTAVANKRSSRTSLLLLVVWSWRRQRWMLRWSSG | 49300
MINCYAEVALFECCVMFILSPLPPFSLSPQYIFYTLLLYLHYQYFVYRNCALL | 71500
MDDDIAMFDSLATTQPIDIAASNQQNGEIAQLWDFNVDQFNMTPSNSSGSATI | 76100
PASRGYDRDRDYRRSPSPRERRERDRSRDRDYDRPRSPAVRATLSSSPAPAAL | 22600
EESGGESGGAADKNARVLSTALELALIVLDTCVELDGGRSLSLEHTALLLAAG | 69300

Sequence | transcriptional activation domain activity
DIFGQMKDFTERCHMYLDGNITLPISLHQKLVEIFSHLLCLIGMITRDMKRGW | 32500
KEEEDRKRAEEEEERERERRRQDEVDRRRRMQDEAKQREAEAKKQAARAAALA | 35500
MRLFRECALFDTFMLYLNGDCMWVCLCLCFYLDFTVLGWFIIYGLVYCRVDDR | 56000
GATSTDHQHHHHRIQFHSHKPNRNNIVNNSGISAANTTADLTNNDLNDLISRE | 31400
FSIVACVVGCQDSEWGLQFSHERCFTLHTLGHLSQFEKIVVVLIACKLLLFSK | 65200
EAPEPAADAPPPRRVRMSKPKVKTGCRECKTRRVKCDEARPACTRCTRGRREC | 36800
HGSTLTTIMIQVSEVMILPSFFQELLDTIRTRCPRVVNFMIWFQVWNWMMVPV | 73300
SLRLLLTVLAGYPIAIVYRLIFLNKTSTIIGASARNWFCLVAGLSLSYYFNSF | 70800
MWLLFYARACLSLLWFTSARVLFFSSFLTFSFLIIWLLGSFDIFRILVLFSFF | 87100
RQLAWECLHHCSVQLRPSGATIRDSLRAAAHYVKHLAIQHKLVLVALQPFFAY | 43100
EITNDESVEAHKEEQAVEAKEGSPEIAAEAEAEEGGAKPAEESKKPRKLIEEE | 12500
MLQLWRLCVDNLLMAFSNYFPLVLPHATRFYLFYFWLILRGLQLTRLFCVCFM | 85300
MFLYSHPPLHPNVFLPPPSLFICTMLQLVFYRPSSVYLLLLLFWIYPPLFLLC | 56400
SFWNTAFHPVYFNTTDLVLSFPFLFLPSFSSFFSFLFCIVIFTIVQRLYVFIS | 97000
WIDTVLIVLFSNDVQIKHKLGRLIIDEWIQIKCPTRTCLLLKLLRKKLHNSLA | 33500
YLIRLILVILLMEFMLHYIYVQALCKSKNFENYTPYQLLMISFFSLKFIWLKL | 58900
RKTGGRSKRTTRGEGKKEEGRSPTKERTTKGARRSKEETRAGGRTSQAEERGK | 33900
MEGYELRMVALLLFSLLFVVAKKRGVHTNPSRLAVFVVLLRLCFVFCCLLFLA | 85000
MYQIEALYLILTYKSIPFYHFNYFSIELIIKPTYLFLYLFFSYLFLHWLNLFD | 35100
EVDEAAVKMVKRARRERRAAEKEASGEAEHAAGVEKKPKRRSSRKKKEEGEGG | 31400
MEDAADDGAASTKKAKVSKKRKKDIESDGEQEKPAKTPKTKLKLNNKTPKEAS | 48700
GHDGHGKGHGHGKGGHGRYARGEEAELEERGYGHGHGGHGKGGHGRYAREEEA | 21100
ILLMELILHTVYCVAISKWGHWEAFSVYEISLIGYMRLSFIWLKLLVIWRFAR | 88100
KRHLPWPWNGERLIFILQDVWVPNFNEHHLLWTLDLKRKGLTFIALTNVWGIY | 50300
CLRYSLLLVSLGLGAEGSPPFLILFPWTPILLARFYCIGWWVRFGFIFVRLWP | 63200
